What is called stoichiometry N is a count of units in the complex or per binding partner.

The assay addresses CeHSP17 protein (small heat shock protein from Caenorhabditis elegans) (Caenorhabditis elegans). Put plainly: cryo-EM structure; single particle 3D reconstruction, 14,217 particles, images obtained at 4°C, tetrahedral symmetry, 14.5 Å.

Substance “CeHSP17 protein (small heat shock protein from Caenorhabditis elegans) (natural protein)” showed a stoichiometry N of 24 subunits.

These data come from PMC4351549.
